Measurements as given in US20210063414A1, “METHODS FOR PREVENTING AND/OR TREATING BONE LOSS CONDITIONS BY MODULATING IRISIN” (Dana-Farber Cancer Institute, Inc., priority 2018, published 2021).

Molecular target: T1, MLO-Y4 cell surface proteins (Mus musculus, UniProt B1AVY7)
T1 construct: endogenous in cells; host or cells: MLO-Y4
T1 sequence (B1AVY7 1-1312): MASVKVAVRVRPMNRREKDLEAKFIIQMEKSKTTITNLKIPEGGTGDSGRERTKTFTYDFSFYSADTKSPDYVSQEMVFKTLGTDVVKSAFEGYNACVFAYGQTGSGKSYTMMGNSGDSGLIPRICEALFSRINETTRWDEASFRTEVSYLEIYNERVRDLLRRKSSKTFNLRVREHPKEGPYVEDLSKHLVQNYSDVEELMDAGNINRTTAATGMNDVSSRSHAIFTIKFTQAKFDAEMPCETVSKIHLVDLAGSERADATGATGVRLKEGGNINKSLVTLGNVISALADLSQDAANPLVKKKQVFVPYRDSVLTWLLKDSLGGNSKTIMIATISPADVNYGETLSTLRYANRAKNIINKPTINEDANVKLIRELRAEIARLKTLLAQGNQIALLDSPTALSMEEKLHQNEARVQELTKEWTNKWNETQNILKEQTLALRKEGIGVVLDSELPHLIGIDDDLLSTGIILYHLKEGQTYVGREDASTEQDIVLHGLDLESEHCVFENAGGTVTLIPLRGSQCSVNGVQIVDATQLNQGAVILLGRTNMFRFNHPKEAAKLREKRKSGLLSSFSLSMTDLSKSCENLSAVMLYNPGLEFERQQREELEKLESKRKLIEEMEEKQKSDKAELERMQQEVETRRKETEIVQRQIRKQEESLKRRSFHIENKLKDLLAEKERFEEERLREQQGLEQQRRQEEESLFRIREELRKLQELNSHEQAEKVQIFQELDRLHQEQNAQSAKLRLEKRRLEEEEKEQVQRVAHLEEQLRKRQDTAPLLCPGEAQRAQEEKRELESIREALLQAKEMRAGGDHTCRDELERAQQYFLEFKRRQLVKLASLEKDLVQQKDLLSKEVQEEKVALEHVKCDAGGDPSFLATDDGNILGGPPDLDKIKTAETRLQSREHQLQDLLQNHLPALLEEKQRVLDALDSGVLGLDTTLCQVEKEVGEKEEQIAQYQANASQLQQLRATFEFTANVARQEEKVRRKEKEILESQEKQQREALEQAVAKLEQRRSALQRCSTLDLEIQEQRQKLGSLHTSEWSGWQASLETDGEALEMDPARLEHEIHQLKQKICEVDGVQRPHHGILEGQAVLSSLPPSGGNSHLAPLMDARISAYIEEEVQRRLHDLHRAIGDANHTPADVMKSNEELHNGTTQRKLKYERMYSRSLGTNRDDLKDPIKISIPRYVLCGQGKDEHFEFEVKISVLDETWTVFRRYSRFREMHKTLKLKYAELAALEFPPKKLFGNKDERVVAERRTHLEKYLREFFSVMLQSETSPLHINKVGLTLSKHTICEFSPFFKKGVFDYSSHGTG
Assay: Crosslinking/co-immunoprecipitation/mass spectrometry (TMT quantitative proteomics) to identify irisin receptors
Assay type: binding
Settings: co-precipitated protein Kif16b (KI16B_MOUSE)
In short: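 Relative protein abundance came from 6-plex TMT MS3 quantitation on an Orbitrap Fusion Lumos, after in-gel trypsin digestion of Coomassie-stained SDS-PAGE lanes. Input was a Ni-NTA pulldown (250 mM imidazole elution) of lysates from murine MLO-Y4 cells. These cells were treated on ice with His-tagged irisin or adipsin (10 nM, 20 min) in serum-free medium, then crosslinked with 1.5 mM DTSSP for 30 min.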

- TMT signal-to-noise ratio: 1117.61
Substance: adipsin
